According to the supplement of paper PMC12042874:
± gives the uncertainty stated by the source.

Assay: amyloid nucleation score (Sup35N fusion, yeast selection) (log enrichment); library NNK1; higher = more nucleation; inactive = no reads after selection
How it was run: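 Output and input plasmid inserts were sequenced by Illumina after psi-negative yeast carrying Sup35N fused to peptides of 20 random codons had been induced 24 hours with 100 μM copper sulfate and grown 7 days at 30°C on medium lacking adenine and uracil. The nucleation score is the DiMSum log enrichment of output over input reads, centred on the mode score of non-aggregating sequences. Sequences with under 100 input reads were excluded.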

Row | Substance | amyloid nucleation score
1 | VYSWNNYGDRKILMLFLTGY | 4.63 ± 0.065
2 | CQFYWLTGPCMRRLRCGSVQ | 0.052 ± 0.36
3 | KIMLSRMYNQYMGCQVKFW | -0.409 ± 0.51
4 | PINYVDRIRYVCMWCLFVAF | inactive
5 | WTCMKSFVMWQSLDFVHFIA | 0.85 ± 0.98
6 | APSAVS | 0.876 ± 0.53
7 | WEFRRWGLRLHLSFLASLGA | -0.015 ± 0.25
8 | IRMVMGTNKFDHVKSRDN | inactive
9 | SQIDYNDSCWNLGNP | 0.164 ± 0.39
10 | SGKTALNSGSFKFLTSSICG | 0.224 ± 1.4
11 | SASDVWCLQMLRSVYFPPQG | inactive
12 | LFCKSPCYFVMLADKMHIWG | 5.07 ± 0.11
13 | TPAASIRLTRLPEGLIFI | 0.47 ± 0.95
14 | KLQVGSPN | -0.053 ± 1.4
15 | IGLRWYSFLLRMSGLSSTGA | -0.23 ± 0.24
16 | AGMAWYTPVWVSGWGQPHTE | -0.119 ± 0.38
17 | VMLFSDVFWALMLHFYDPAF | -1.01 ± 0.61
18 | GRYTYDTMFTGWGASDELHI | 1.14 ± 0.97
19 | LFYFTRLFINRYMNM | -0.316 ± 0.5
20 | VSCCNSQTSQLMDFGNKVSP | 0.349 ± 0.25
21 | HISGLPVWLSCSWFWPKRLL | 0.08 ± 0.32
22 | VAVLGNFL | inactive

Row | Substance | amyloid nucleation score
23 | WPELIFNGVPMSSCVLPGLF | 1.12 ± 0.6
24 | WNHFERMEKPA | -0.639 ± 1.2
25 | AYAILMRKMVIHADLLARC | -0.006 ± 0.7
26 | KYFYMMTAYRRWRRDPYLGG | -0.54 ± 0.62
27 | DGTSPRQLKCMLKFLFDVWD | 2.94 ± 0.2
28 | VGSTKSDVTDFLDCMNGLEW | 0.462 ± 0.63
29 | GCDCDQVLKYHARCMYVKDE | inactive
30 | LHWWRFFVEVTLPCLGFLLS | -0.308 ± 0.76
31 | LVVKQLLNSAGCTRPCTVRC | 0.164 ± 0.55
32 | KVYIIFVRGEDAFKLRGAAN | -0.529 ± 1.5
33 | LCFGYKLIAKECVCAGRTES | inactive
34 | RMGNQYPRSVKWT | -0.029 ± 0.33
35 | SYWCLRAYLRLWLL | -0.164 ± 0.42
36 | MLLRRKNIAGGYMVLEVGLS | -0.1 ± 0.31
37 | AMGRLYS | -0.41 ± 0.3
38 | TFYYPINFHTLGLYKLVVML | 0.589 ± 0.33
39 | AGGRFCLLKFLTRFASCRGE | 2.44 ± 0.24
40 | YNTDWPLHLTADVGVFY | -0.088 ± 1.1
41 | SMESLTVEAMNSVEAFPVTY | -1.22 ± 0.73
42 | CLVYVQLWVARMSYPCVRFG | 0.214 ± 0.32
43 | GTSTHIIFGMAVSSVRRYHM | 1.33 ± 0.33
44 | VVESGVFWDSSYNFKGDTVW | 0.532 ± 0.92

Row | Substance | amyloid nucleation score
45 | LYVTVGWSLWYGSFAVMVVC | 0.026 ± 0.41
46 | LLFIAG | 0.386 ± 0.66
47 | SGMFYILPTSPGYAHEVPRR | 0.393 ± 0.35
48 | LRRVRMEWSVVMHGQSENPE | 1.2 ± 0.35
49 | TFSMSQNWVLNCAYLVIGYH | 4 ± 0.14
50 | FPGLTFILAGMLCMTCKIRG | 4.12 ± 0.13
51 | HLSLGINVPTCFLSEKALLV | 1.25 ± 0.68
52 | QHWAGIPDLAF | 0.547 ± 0.64
53 | PWISFTKYKTLSYETHPGWF | 0.544 ± 0.79
54 | GHGWITMVTDCR | 1.87 ± 0.4
55 | YIDIVSQKC | 0.922 ± 0.62
56 | LISGVS | inactive
57 | AKLAPCNSLVIDTY | 1.89 ± 0.4
58 | IILFNRILLV | inactive
59 | GHYKGECYSLMNPV | -0.067 ± 1.2
60 | YKHKTFIPRFTYNETVVYYV | 4.85 ± 0.087
61 | ISWQAVTSRGTCNN | -1.01 ± 0.68
62 | SLFPVTVRKDCCLT | -0.434 ± 0.39
63 | VNSRCLSAYTK | 0.46 ± 0.34
64 | VFLSCHQSLRVFVACYWHWY | 0.672 ± 0.33
65 | YISLRFISYYYYVRGKFYMK | 0.672 ± 0.56
66 | LSIEQTLQEAGILDYPSRIT | -0.155 ± 0.35

Row | Substance | amyloid nucleation score
67 | LVTFRGGYNVDVIMWNNVRR | 3.69 ± 0.063
68 | SNFTEVLLSECFLVWLMFTH | 0.089 ± 0.87
69 | RLTNELLGVSIRLTSWFTFH | 0.606 ± 0.48
70 | NCGNMAATSFVNEIYL | inactive
71 | ILSRCVC | 0.608 ± 0.37
72 | DMIKNAVNILLMMSVF | -0.399 ± 0.28
73 | MLKGMQSDSLKLNGDVDPCV | 0.175 ± 0.28
74 | SLITGIRRSGMAICLDLWAG | -1.21 ± 2.7
75 | RCNAKWL | -0.426 ± 0.77
76 | WSGIVFRIEGVAYVVHVNDA | 1.17 ± 0.18
77 | SHDSKAAHPWSLRNYVATRR | 0.182 ± 0.42
78 | FSHKRW | -0.479 ± 0.48
79 | FVLADYVGAARVRGTTLFAE | 0.406 ± 0.53
80 | ATQRKDIA | inactive
81 | VIILNVVFNLLYEKAFFFR | 0.278 ± 0.68
82 | QFHFMPWIDMSFSHLVHVYG | -0.741 ± 0.29
83 | NYSVFVTSI | 0.365 ± 0.5
84 | NDTLGSCLDNSLQSGSWWLR | 0.276 ± 0.39
85 | RGMKCIMSSKDVGS | -1.13 ± 2.4
86 | LRDDRFLMKLHYKKQDSSCV | 0.324 ± 0.53
